Here are results for 6 proteins from patent publication US20070292434A1 (VIB VZW, published 2007).

Data set [1] concerns the molecule itself. The data set is described as follows: non-reducing anti-FLAG Western blot of COS-1 supernatant (self-association). The text has this:
Panel A: The plasmid encoding FNIII-FLAG-His was transfected in COS-1 cells. Supernatant was subjected to Western blot analysis under reducing (R) or non-reducing (NR) conditions with an anti-FLAG antibody.
Panel A: Plasmid pMET7 CRH2-FLAG-His was transiently transfected in COS-1 cells. Supernatant was subjected to Western blot analysis with an anti-FLAG antibody under reducing (R) and non-reducing (NR) conditions.
We next analyzed the ligand-independent clustering of the FNIII domains in more detail. Constructs were generated to produce secreted forms of the FNIII domains, either as a FLAG-His-, or as a SEAP-FLAG-tagged protein. When FNIII-FLAG-His was expressed in COS-1 cells and analyzed under non-reducing conditions, di-, tri- and even higher order clusters were observed (FIG. 2, panel A). This clustering is independent of protein concentration since transfection with smaller amounts of expression vector gave the same clustering pattern. To confirm this FNIII-clustering, we set up a His/SEAP co-precipitation experiment. In this assay, FNIII-SEAP-FLAG proteins were co-expressed with FNIII-FLAG-His, or with empty vector as a negative control. Supernatants were analyzed in a precipitation experiment with a Ni²⁺ affinity resin. Co-precipitated SEAP activity reflects interaction between the proteins. FIG. 2, panel B clearly confirms homotypic interaction of the FNIII domain.
On the technique in general: In western blotting, separated proteins are transferred to a membrane and probed.

Data set [2] concerns the molecule itself. As to the kind of experiment: non-reducing anti-FLAG Western blot of secreted protein (self-association).
Data set [3] concerns the molecule itself. As to the kind of experiment: non-reducing anti-FLAG Western blot of COS-1 lysates (self-association). The text has this:
Panel A: Plasmids encoding (1) mLR ΔCRH1, ΔIg, ΔCRH2; (2) mLR ΔCRH1, ΔIg, ΔCRH2 cys672ser; (3) mLR ΔCRH1, ΔIg, ΔCRH2 cys751ser; (4) mLR ΔCRH1, ΔIg, ΔCRH2 cys672,751ser were transiently transfected in COS-1 cells. Transfected cells were lyzed in a reducing (R) or non-reducing (NR) loading buffer. Lysates were loaded on a SDS-PAGE gel, blotted to a nitro-cellulose membrane and subjected to Western blot with an anti-FLAG antibody.

B1: FNIII-FLAG-His (receptor, murine, UniProt P48356 637-839, looked up, not shown: small tags and cut ends)
chain: PMRGPEFWRKMDGDVTKKERNVTLLWKPLTKNDSLCSVRRYVVKHRTAHNGTWSEDVGNRTNLTFLWTEPAHTVTVLAVNSLGASLVNFNLTFSWPMSKVSAVESLSAYPLSSSCVILSWTLSPDDYSLLYLVIEWKILNEDDGMKWLRIPSNVKKFYIHDNFIPIEKYQFSLYPVFMEGVGKPKIINGFTKDAIDKQQNDAG
notes: domain: FNIII domains; Secreted from COS-1 or Hek293T cells; runs as di-, tri- and higher order disulphide-linked clusters under non-reducing conditions; also called mLR FNIII-FLAG-His; soluble FNIII domains
As to B1, the binding result in data set [1] is “binds”.

B2: FNIII-FLAG-His cys751ser (receptor, murine, UniProt P48356 637-839, looked up, not shown: small tags and cut ends)
chain: PMRGPEFWRKMDGDVTKKERNVTLLWKPLTKNDSLCSVRRYVVKHRTAHNGTWSEDVGNRTNLTFLWTEPAHTVTVLAVNSLGASLVNFNLTFSWPMSKVSAVESLSAYPLSSSSVILSWTLSPDDYSLLYLVIEWKILNEDDGMKWLRIPSNVKKFYIHDNFIPIEKYQFSLYPVFMEGVGKPKIINGFTKDAIDKQQNDAG
notes: domain: FNIII domains
On to B2, for which the binding result in data set [2] was “binds”.

B3: FNIII-FLAG-His cys672ser (receptor, murine, UniProt P48356 637-839, looked up, not shown: small tags and cut ends)
chain: PMRGPEFWRKMDGDVTKKERNVTLLWKPLTKNDSLSSVRRYVVKHRTAHNGTWSEDVGNRTNLTFLWTEPAHTVTVLAVNSLGASLVNFNLTFSWPMSKVSAVESLSAYPLSSSCVILSWTLSPDDYSLLYLVIEWKILNEDDGMKWLRIPSNVKKFYIHDNFIPIEKYQFSLYPVFMEGVGKPKIINGFTKDAIDKQQNDAG
notes: domain: FNIII domains
Take B3: the binding result in data set [2] is “binds”.

B4: CRH2-FLAG-His (receptor, murine, UniProt P48356 428-635, looked up, not shown: small tags and cut ends)
chain: VNINISCETDGYLTKMTCRWSPSTIQSLVGSTVQLRYHRRSLYCPDSPSIHPTSEPKNCVLQRDGFYECVFQPIFLLSGYTMWIRINHSLGSLDSPPTCVLPDSVVKPLPPSNVKAEITVNTGLLKVSWEKPVFPENNLQFQIRYGLSGKEIQWKTHEVFDAKSKSASLLVSDLCAVYVVQVRCRRLDGLGYWSNWSSPAYTLVMDVK
notes: domain: CRH2; Expressed as a reduction-sensitive oligomeric complex; also called mLR CRH2-FLAG-His; soluble CRH2 domain
Consider B4, for which the binding result in data set [1] is listed as “binds”.

B5: mLR ΔCRH1, ΔIg, ΔCRH2 cys751ser (receptor, murine, UniProt P48356 637-1162, looked up, not shown: small tags and cut ends)
chain: PMRGPEFWRKMDGDVTKKERNVTLLWKPLTKNDSLCSVRRYVVKHRTAHNGTWSEDVGNRTNLTFLWTEPAHTVTVLAVNSLGASLVNFNLTFSWPMSKVSAVESLSAYPLSSSSVILSWTLSPDDYSLLYLVIEWKILNEDDGMKWLRIPSNVKKFYIHDNFIPIEKYQFSLYPVFMEGVGKPKIINGFTKDAIDKQQNDAGLYVIVPIIISSCVLLLGTLLISHQRMKKLFWDDVPNPKNCSWAQGLNFQKPETFEHLFTKHAESVIFGPLLLEPEPISEEISVDTAWKNKDEMVPAAMVSLLLTTPDPESSSICISDQCNSANFSGSQSTQVTCEDECQRQPSVKYATLVSNDKLVETDEEQGFIHSPVSNCISSNHSPLRQSFSSSSWETEAQTFFLLSDQQPTMISPQLSFSGLDELLELEGSFPEENHREKSVCYLGVTSVNRRESGVLLTGEAGILCTFPAQCLFSDIRILQERCSHFVENNLSLGTSGENFVPYMPQFQTCSTHSHKIMENKMCDLTV
notes: domain: FNIII, transmembrane and cytoplasmic domains (CRH1, Ig and CRH2 deleted); also called single cys751ser mutant receptor
As to B5, the binding result in data set [3] is reported as “binds”.

B6: mLR ΔCRH1, ΔIg, ΔCRH2 cys672ser (receptor, murine, UniProt P48356 637-1162, looked up, not shown: small tags and cut ends)
chain: PMRGPEFWRKMDGDVTKKERNVTLLWKPLTKNDSLSSVRRYVVKHRTAHNGTWSEDVGNRTNLTFLWTEPAHTVTVLAVNSLGASLVNFNLTFSWPMSKVSAVESLSAYPLSSSCVILSWTLSPDDYSLLYLVIEWKILNEDDGMKWLRIPSNVKKFYIHDNFIPIEKYQFSLYPVFMEGVGKPKIINGFTKDAIDKQQNDAGLYVIVPIIISSCVLLLGTLLISHQRMKKLFWDDVPNPKNCSWAQGLNFQKPETFEHLFTKHAESVIFGPLLLEPEPISEEISVDTAWKNKDEMVPAAMVSLLLTTPDPESSSICISDQCNSANFSGSQSTQVTCEDECQRQPSVKYATLVSNDKLVETDEEQGFIHSPVSNCISSNHSPLRQSFSSSSWETEAQTFFLLSDQQPTMISPQLSFSGLDELLELEGSFPEENHREKSVCYLGVTSVNRRESGVLLTGEAGILCTFPAQCLFSDIRILQERCSHFVENNLSLGTSGENFVPYMPQFQTCSTHSHKIMENKMCDLTV
notes: domain: FNIII, transmembrane and cytoplasmic domains (CRH1, Ig and CRH2 deleted)
B6: the binding result in data set [3] is on record as “binds”.
